From patent US20250019449A1

Columns and labels:
[1] = biological target: human CCR8 (human) (UniProt P51685); assay: flow cytometry on mammalian cells expressing human CCR8
[2] = biological target: human CCR8 (human) (UniProt P51685); assay: cell-based or functional assay

human CCR8 (human), sequence (P51685 whole entry): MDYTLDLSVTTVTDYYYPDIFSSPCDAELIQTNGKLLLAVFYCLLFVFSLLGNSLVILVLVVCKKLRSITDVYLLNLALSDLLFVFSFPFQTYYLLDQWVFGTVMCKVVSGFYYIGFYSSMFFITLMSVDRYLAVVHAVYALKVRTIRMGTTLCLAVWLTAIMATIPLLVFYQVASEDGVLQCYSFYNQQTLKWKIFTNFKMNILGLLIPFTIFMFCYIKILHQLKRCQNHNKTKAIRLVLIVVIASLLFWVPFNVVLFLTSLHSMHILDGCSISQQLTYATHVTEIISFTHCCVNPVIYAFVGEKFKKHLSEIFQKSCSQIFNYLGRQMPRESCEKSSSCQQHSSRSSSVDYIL

Row | Substance | MFI Fold over Background (fold over background) [1] | IC50 antagonism of EC80 Human CCL1 Gα15/16 Biosensor [2] [nM] | IC50 antagonism of EC80 Human CCL1 Gαz Biosensor [2] [nM]
1 | ADI-26140: Human IgG1 isotype control (antibody) | 2 |  | 
2 | MC148R = virokine from Molluscum contagiosum virus subtype 2 (MOCV) (ligand) |  | 33.5 | 13.8
3 | CTL-33364 = Biolegend human CCR8 control IgG clone L263G8 (antibody) | 268 | 1.62 | 0.798
